Experimental data published in patent US20230190885A1, “PLACENTAL ALKALINE PHOSPHATASE TO PROMOTE SCAR-FREE HEALING OF ACNE VULGARIS AND OTHER INFLAMMATORY SKIN LESIONS CAUSED BY MICROBIAL INFECTIONS” (priority 2021, published 2023).

Columns and labels:
HaCaT cells [1] = experiment: MTT assay, proliferation/viability of HaCaT keratinocytes; format: cell-based, human; settings: 72 hours; for Viability of Cells (Absorption: A540) HaCaT cells: MTT, 200 nM PLAP or rPLAP, 100 µM ATP, mean ± S.D. of eight wells
Text: The immortalized human HaCaT keratinocyte cell line, isolated in 1988 [Boukamp, P., Petrussevska, R.T., Breitkreutz, D., Hornung, J., and Markham, A., “Normal keratinization in a spontaneously immortalized aneuploid human keratinocyte cell line,” J. Cell. Biol., 106, 761-771, 1988], was provided for these studies by the Institute of Dermatology, Szeged University, , Szeged, Hungary). HaCaT cells were maintained in 10% fetal bovine serum (FBS) and 1% penicillin-streptomycin -containing Dulbecco’s modified Eagle’s medium (DMEM) up to 80% confluency in an incubator (5% CO2, 37° C.). Cells were plated into 96 well plates at 20% confluency and incubated for 72 hours in an incubator (5% CO2, 37° C.) with 200 nM purified PLAP or rPLAP in the absence or presence of 100 µM ATP.
(§1) The relative changes in the number of viable cells were determined by the MTT assay. This colorimetric assay is based on the ability of living healthy cells (mostly the mitochondrial compartment), but not dead cells, to reduce 3-(4,5-dimethyl thizaol-2-yl)-[…] to a blue formazan product [Carmichael, J., De Graft, W.G., Gazdar, A.F., Minna, J.D. and Mitchell, J.B. Evaluation of tetrazolium-based semi-automated colorimetric assay: Assessment of chemosensitivity resting. Cancer Res. 47, 936-942, 1987] This technique is a widely used and accepted method to accurately determine the relative numbers of viable cells. For example, this is the official method used by the National Cancer Institute to screen anticancer drugs.
(§2) A MULTISKAN MS microplate reader purchased from Labsystems (Franklin, Massachusetts) was used to measure the formation of formazan as an increase in absorbance at a test wavelength of 540 nm and a reference wavelength of 690 nm. In the data analysis, data were expressed as mean values ± standard deviation (S.D.) of eight incubations (from eight wells) in one experiment. In each case, incubations were performed for 72 hours.

CCD 966 SK fibroblasts = experiment: MTT assay, proliferation/viability of CCD 966 SK fibroblasts; format: cell-based, human; settings: 72 hours; for Viability of Cells (Absorption: A540) CCD 966 SK: MTT, 200 nM PLAP or rPLAP, 100 µM ATP, mean ± S.D. of eight wells
Experimental: CCD 966 SK fibroblasts, originally derived from a subject and purchased from American Type Culture Collection (Alexandria, Virginia), were at passage 5 when used. The fibroblasts were maintained and treated as described above for the HaCaT cells.
as §1, §2

shingles = experiment: Treatment of shingles in human subjects; format: in vivo; settings: two subjects, recurrent painful shingles, oral, 4-times a day
Experimental: The PLAP cream can be used for the local treatment of Shingles or other skin lesions caused by reactivated HSV-1 or HSV-2 generally, but not always, along with treatment with a prescribed antiviral drug. The same carriers and additives may be used as described for the acne treatment, The recommended amount of PLAP per 1 gram carrier is 2.0 to 10.0 mg. Generally, the larger the lesion the more PLAP per 1 gram carrier is needed. As examples, if the area of the lesion is 10 cm^2 or smaller, 2 mg per 1 gram carrier is suitable. If the area of the lesion is larger than 10 cm^2 then, depending on the lesion’s size, the recommended concentration of PLAP is between 2.1 to 10.0 mg per 1 gram carrier. Local treatment of the lesion with PLAP cream is performed once daily along with oral administration of the prescribed antiviral drug (usually four-times a day). Local administration of the antiviral drug is not recommended. In case of shingles, when the lesion treated with placental alkaline phosphatase or an active derivative is smaller than 2.0 cm^2, the use of an antiviral drug is optional. In cases of skin lesions caused by HSV-1 or HSV-2, the use of an oral antiviral drug is optional regardless of the lesion’s size.
Two individuals (one person and one person) had recurrent painful shingles at 10-16 months intervals, usually lasting for 4-6 weeks without treatment, associated with pain lasting beyond 6 weeks that prevented them to get a good night sleep.
When a new recurrence of shingles occurred again, the same two subjects were co-treated with local PLAP cream (5 mg PLAP in 1-gram Vaselinum cholesterinatum) and oral acyclovir. The two subjects responded to this combination treatment similarly.
They started the treatment with acyclovir and PLAP cream on day 0. […] Complete healing of both subjects occurred by day 12 (the subject) and day 14 (the subject).
Two female individuals, had recurrent (practically yearly) moderate shingles (one had under the breast, the other had on the arm, both approximately the size of 1-2 cm^2) previously lasting for about 2-3 weeks. […]

acne lesion = experiment: Topical treatment of acne lesions in human subjects; format: in vivo; settings: for visible effect on acne covered area: person, before PLAP treatment
Text: Highly purified placenta derived PLAP, or essentially pure recombinant PLAP, or an essentially pure active derivative thereof, is dispersed in a suitable carrier and gently massaged onto the acne lesion. The carrier used in the invention is Vaselinum cholesterinatum, but it may be replaced by Vaselinum flavum or Vaselinum album. Vaselinum cholesterinatum consists of about 1.5 wt.-% cholesterol, about 5.0 wt.-% cerae lanae, and about 93.5 wt.-% Vaselinum flavum. In this invention, for a preparation containing PLAP or rPLAP in a carrier the term “PLAP cream” is used.
Other appropriate forms of PLAP containing compositions may contain other suitable carriers in the forms of gels, lotions, unguents, emollients, colloidal dispersions, suspensions, emulsions, oils, sprays, liposomes, non-ionic detergents, foams, mousses, and the like as used in the skin care industry with no damaging effects on the skin. Preferably, the chosen carrier would enable PLAP to exert its antiacne effect or at least would not reduce it. In addition, the carrier should not be comedogenic and should not inhibit interaction of PLAP with the acne lesion. In the preparation of the carrier-PLAP mixture, PLAP is first dissolved in distilled water or a suitable buffer and then mixed with the carrier. The PLAP cream contains highly purified PLAP or rPLAP, in the amount of 0.1 to 10 mg per one gram carrier gently massaged onto the area of acne lesion. The amount of PLAP depends on the severity of acne. In cases of light, moderate and severe acnes the recommended amount of PLAP per 1 gram carrier is 0.1 to 0.5 mg, 0.6 to 2 mg, and 2.1 to 10 mg PLAP, respectively. Before each daily treatment the acne lesion needs to be cleaned with a facial cleanser as recommended by the manufacturer. The length of the daily treatments is typically for about 3 weeks, but it may be extended until the lesion is healed.
Complete recovery of the original skin texture required about 5 weeks with no additional treatments needed between 3 to 5 weeks.
Complete recovery of the original skin texture required about 6 weeks with no additional treatments needed between 3 to 6 weeks.
Complete recovery of the original skin texture required about 8 weeks with no additional treatments needed between 4 to 8 weeks.
This idea was tested with 16-17-year-old males who started to develop acne during a 2 to 4-day period. Treatments (2-mg PLAP in 1-gram Vaselinum cholesterinatum) were applied at bedtime only once.

HaCaT cells [2] = experiment: [U-14C]ATP hydrolysis and adenosine formation in intact HaCaT cells; format: cell-based, human; settings: 2 hours
Experimental: (§3) In these experiments, PLAP was incubated with human HaCaT cells and human 966 SK fibroblasts. The plasma membranes of both cell lines contain ectonucleotidases that hydrolyze ATP to result in the formation of adenosine. If PLAP binds ATP as reported earlier, it will compete with the ectonucleotidases for ATP. In this case, in the presence of PLAP the formation of adenosine, the final product of ATP hydrolysis, should be reduced. The experiment performed under this Example served to examine this possibility.
(§4) HaCaT and 966 SK cells were grown in 10% serum containing DMEM medium (0.1 ml) in 96-well plates to confluence. First, the medium was changed for serum-free medium. […] (0.1 mM) of [U-^14C] ATP (purchased from Amersham). Incubations in an incubator were performed for 2 hours. […] aliquots were withdrawn into small centrifuge tubes followed by the addition of 0.15 ml of chloroform methanol 2:1 mixture containing 1 mM adenosine (to help UV visualization and reduce cellular uptake of [U-^14C] Adenosine) to precipitate the proteins and eliminate lipids. After centrifugation, 5 µl aliquots of the lower phase were transferred to fluorescent PEI-cellulose (polyethyleneimine-impregnated cellulose) plates, and after drying the plates they were developed with water in a flat bottom chamber. After drying and visualizing the adenosine and nucleotide spots under UV (all nucleotides remained in the application spots), the respective areas were cut out, placed in scintillation vials, and radioactivity was measured in a liquid scintillation spectrometer. Data is the mean of three independent determinations (from three separate wells) ± S.D. in the same experiment.

CCD 966 SK cells = experiment: [U-14C]ATP hydrolysis and adenosine formation in intact CCD 966 SK fibroblasts; format: cell-based, human; settings: 2 hours
Experimental: as §3, §4

[3] = CCD 966 SK fibroblasts, agent alone
[4] = PLAP, 500 nM, 0.1 mM [U-14C]ATP, mean ± S.D. of three wells

## Nc1ncnc2c1ncn2[C@@H]1O[C@H](COP(=O)(O)OP(=O)(O)OP(=O)(O)O)[C@@H](O)[C@H]1O [ATP, adenosine 5′ triphosphate, reference compound]
HaCaT cells [1]; HaCaT cells, agent alone
  effect on proliferation (in words): no effects
HaCaT cells [1]
  Viability of Cells (Absorption: A540) HaCaT cells: 0.841±0.037
CCD 966 SK fibroblasts; [3]
  effect on proliferation (in words): no effects
CCD 966 SK fibroblasts
  Viability of Cells (Absorption: A540) CCD 966 SK: 0.686±0.029

## Nc1nc2c(ncn2COCCO)c(=O)[nH]1 [acyclovir]
shingles
  effect on pain: no significant effect on pain
  time of full healing of shingles: by the end of third week
shingles; in 10-12 days
  remission of shingles: 40-50%

## O=C(OOC(=O)c1ccccc1)c1ccccc1 [benzoyl peroxide]
Acne lesion; left side of face, as prescribed for 2 months
  visible effect on acne covered area: only small visible positive effects
Acne lesion; left side of face, as prescribed for 3 months
  visible effect on acne covered area: only small visible positive effects
Acne lesion; right side of face, as prescribed for 2 months
  visible effect on acne covered area: only small visible positive effects
Acne lesion; right side of face, as prescribed for 3 months
  visible effect on acne covered area: only small visible positive effects

B1: PLAP: full length placental alkaline phosphatase, highly purified from commercial PLAP (Sigma-Aldrich) (protein, UniProt P05187 23-506, looked up)
Alkaline phosphatase, …: IIPVEEENPDFWNREAAEALGAAKKLQPAQTAAKNLIIFLGDGMGVSTVTAARILKGQKKDKLGPEIPLAMDRFPYVALSKTYNVDKHVPDSGATATAYLCGVKGNFQTIGLSAAARFNQCNTTRGNEVISVMNRAKKAGKSVGVVTTTRVQHASPAGTYAHTVNRNWYSDADVPASARQEGCQDIATQLISNMDIDVILGGGRKYMFRMGTPDPEYPDDYSQGGTRLDGKNLVQEWLAKRQGARYVWNRTELMQASLDPSVTHLMGLFEPGDMKYEIHRDSTLDPSLMEMTEAALRLLSRNPRGFFLFVEGGRIDHGHHESRAYRALTETIMFDDAIERAGQLTSEEDTLSLVTADHSHVFSFGGYPLRGSSIFGLAPGKARDRKAYTVLLYGNGPGYVLKDGARPDVTESESGSPEYRQQSAVPLDEETHAGEDVAVFARGPQAHLVHGVQEQTFIAHVMAFAACLEPYTACDLAPPAGTTD
Acne lesion; 16-17-year-old males, acne developing during 2 to 4 days, 2-mg PLAP in 1-gram Vaselinum cholesterinatum, applied once at bedtime
  time to complete healing of acne: 2 to 5 days
Acne lesion; 16-17-year-old males, early acne, 2-mg PLAP in 1-gram carrier, applied once
  scar tissue formation: without any scar tissue formation
HaCaT cells [1]; HaCaT cells, agent alone
  effect on proliferation (in words): clearly stimulated proliferation
HaCaT cells [1]
  Viability of Cells (Absorption: A540) HaCaT cells: 1.086± 0.047
HaCaT cells [1]; epidermal (HaCaT) cells, in the presence of ATP
  effect on proliferation (in words): inhibited the proliferation
HaCaT cells [2]
  formation of radiolabeled adenosine (in words): dramatic reduction
  hydrolysis of ATP and related nucleotides (in words): greatly reduced the hydrolysis
HaCaT cells [2]; [4]
  Total [U-14C] nucleotide: 1,572,853 ± 33,737 c.p.m./well
  [U-14C] Adenosine: 71,048 ± 2,220 c.p.m./well
CCD 966 SK fibroblasts; [3]
  effect on proliferation (in words): clearly stimulated proliferation
CCD 966 SK fibroblasts
  Viability of Cells (Absorption: A540) CCD 966 SK: 0.853±0.040
CCD 966 SK fibroblasts; fibroblasts (CCD 966 SK), in the presence of ATP
  effect on proliferation (in words): inhibited the proliferation
CCD 966 SK cells
  formation of radiolabeled adenosine (in words): dramatic reduction
  hydrolysis of ATP and related nucleotides (in words): greatly reduced the hydrolysis
CCD 966 SK cells; [4]
  Total [U-14C] nucleotide: 1,653,949 ± 42,791 c.p.m./well
  [U-14C] Adenosine: 34,019 ± 4,892 c.p.m./well
